Measurements from the DeepSol protein solubility set.

Assay: soluble on expression in E. coli; label from the status in PepcDB or PDB records

Sequence	soluble on expression in E. coli
MAPPKRRSTRPTTPAAPTDPPIEEKKPDLLIAYDSDEKFVFSFSEEGLTAKECAEKMNGFSTKEQFLTEVHVDEMLRFLTKVIIGRKGEPLKCLCCDRLYVSSSGFLIHIKKCSTKNEQDRLTDAQNKYRNEPSKWLNVRKKDQIATLKTIVGTNYTCFMIGCSLNFGSLKDLIEHLATCIGADYYSYKNRPDDFRKLSKKAKQAYTLDAVTKNKGIVKCLVCDKEYTNHMSIIYHIDRCQVDKSLQPWKCWRCGFDATAADAQEHLIDCGRTAEMKMFDRLPESSSFGFPIPGSSVPSTSEPTTSAAAAPTKRKRVTGGAPRATPRKDGTTLYRFRKSTISRSSNGIVTKKDKKLYEDQCSKIFENWKQKSAEIAFCDTLSNIANSKWKLSILDSNDQFYRIFTRQSVTLVSGKTLGLQQTVPPGIRLDALKSREMLDEDDAPKATVGYCGAPINSINVAPGKTRDGSDVICVTTFANDTDLESDSSCVQFWKHKLGKKKKSHLELWFLIHLPLRGTILHATWLQKQHNDEMMTSLIGYVAFSTTIGQILIYKIDESRVPEAPDRGDNVHVIVADPDLTLRLPKSTDTPDDTFLNADVKMEGDDIVVLPTRIDESTVPLLKIAWSYHNGGATLAALTALGAIAIWNLDGGDLDMPRVNIEESWQSPPSDIAFWNIDHLVVGFREKIVKVISIETWDVMLEDNTAKNAGSRVHTDNRIVRSFFMFQSDHTAFPYPNATNLTYVHCDIDTMTMILVPTGNTHQLLTWDVAMCPAVGTLLSSGIDGRLVASATGRFLGNMRHSYFANRNVMALKRRRILKESQTMEEYLKEVKMEGSAEGSTSTSTTKISDDKINEPLEESITEHTEVCQKMWLDVQFDEIFEPTRPEFSCRDQRIESLNCVDGTTSRDWPVSFTGGEAGLLFAVSVKLHIEEMDL	not soluble
MAPQMEKVSEELILPSSPTPQSLKCYKISHLDQLLLTCHIPFILFYPNPLDSNLDPAQTSQHLKQSLSKVLTHFYPLAGRINVNSSVDCNDSGVPFVEARVQAQLSQAIQNVVELEKLDQYLPSAAYPGGKIEVNEDVPLAVKISFFECGGTAIGVNLSHKIADVLSLATFLNAWTATCRGETEIVLPNFDLAARHFPPVDNTPSPELVPDENVVMKRFVFDKEKIGALRAQASSASEEKNFSRVQLVVAYIWKHVIDVTRAKYGAKNKFVVVQAVNLRSRMNPPLPHYAMGNIATLLFAAVDAEWDKDFPDLIGPLRTSLEKTEDDHNHELLKGMTCLYELEPQELLSFTSWCRLGFYDLDFGWGKPLSACTTTFPKRNAALLMDTRSGDGVEAWLPMAEDEMAMLPVELLSLVDSDFSK	soluble
MAPSAAVGNYGEVIDYLQRHIRREMERQDVPGLALALVDDQQLVWARGFGYADRQHRINASEHTAFHAGDLSKLLIASATLQLAERGQLSLDAPLQDTLREFYVRSRFHADQSEADRAITFRRLLSHQSGLPGEHLPPLFGERPNSLGQLPAKVSGVWLSNPPGTQVAHSNLGYELVGAAIERNTGKHFEQHMREHLLDPLQMTRSSFARNALPQAQRAHGYSGGGRPGSASDLPVNDLWSSPVDLSRFVRMLFANGRHKERQLLRKHSVEEMFRQQNAGNALDFDCQVGLAWFLSPCGSAPLEGGIRHYEYASATPGFSAHLILLPEQRLAAIVMSNADDSGSLTASLARQAASLMLQVKQGARRPAVQLEHHHHHH	not soluble
MAPVLGLLENEAKVKSIIRNNNLLEKKFSSFQRQCRDLSRNHALLDSCCSQVKHSATAAEEMSVSDKDVKNHQKKLHSFLAQSTDQVNSTIDKMDFFCSKGNHSLPMEMSVLSITLPYEACIEKSAKKHETMVFSIDEVSSAVQHLENEKVDVEKRQSSTGKLIFQTEKEIMKLKEEIQVNTNLESNIIQLSLEKLSSVKDSSTSENVYKAKLEEEINEARQIYEDALKQDVISQESAMMTQQLESLNELCSDLSDLNKINLTSIEKFPDCNEVCELSDELQTLEKSEAENSESIINLEASLEDIKYQNKKVRKSFDQINQLENAYIVKKEVLTRKKSAIEDVKRQIAESKITLNKLKVTVRAVERSDTPENVESKKEEAFRRLVASSTELPGPESFQRDNVRNVEKSLRFKKWNQRTTSQSSFTSDSTRSIGPIGVHYPGIKLINKDAATPTEVIRKITSELNESATSEDSTFDDDTGTTQDESGLNAFFNSPVSKEQTSMRPQFSMIAHMEKYDTMQAKKNMDKLPDNVRRESEMEHISHNYGRPSEVNRPASVSSKRHDPAASISATSEESILSGTTQDESMLNDFFNPTGTDEKLNDVEFSMTAHVAEFDNRQKAKRAAEQIKKSSSKISGKKEESVADDKSSGNSYVAESEAGFSQGSEENESMDDEDLVAPDDGGLDQTIWDGDD	not soluble
MAQEDVTAVATNGAGPVETHLVFTEFKQMLLVEAQKVGDAVTFYKSAFGAIESGHSLYPKRKLDQELPHVLSSELNLAGSSFVVCDVSSLPGFSTAKSEGSGVTFLLGTKDAEAAVAKAVDAGAVKVEVTEAEVELGFKGKVTDPFGVTWIFAEKKTVITDENKEV	soluble
MAQFVYTMHRVGKVVPPKRHILKNISLSFFPGAKIGVLGLNGAGKSTLLRIMAGIDKDIEGEARPQPDIKIGYLPQEPQLNPEHTVRESIEEAVSEVVNALKRLDEVYALYADPDADFDKLAAEQGRLEEIIQAHDGHNLNVQLERAADALRLPDWDAKIANLSGGERRRVALCRLLLEKPDMLLLDEPTNHLDAESVAWLERFLHDFEGTVVAITHDRYFLDNVAGWILELDRGEGIPWEGNYSSWLEQKDQRLAQEASQEAARRKSIEKELEWVRQGTKGRQSKGKARLARFEELNSTEYQKRNETNELFIPPGPRLGDKVLEVSNLRKSYGDRLLIDDLSFSIPKGAIVGIIGPNGAGKSTLFRMISGQEQPDSGTITLGETVKLASVDQFRDSMDNSKTVWEEVSGGLDIMKIGNTEMPSRAYVGRFNFKGVDQGKRVGELSGGERGRLHLAKLLQVGGNMLLLDEPTNDLDIETLRALENALLEFPGCAMVISHDRWFLDRIATHILDYQDEGKVEFFEGNFTEYEEYKKRTLGADALEPKRIKYKRIAK	soluble
MAQHGALETLKDLAEKEVDDAARLLGEMRRGCQQAEEQLKMLIDYQNEYRSNLNTDMGNGIASNRWINYQQFIQTLEKAIEQHRLQLTQWTQKVDLALKSWREKKQRLQAWQTLQDRQTAAALLAENRMDQKKMDEFAQRAAMRKPE	not soluble
MAQIDFRKKINWHRRYRSPQGVKTEHEILRIFESDRGRIINSPAIRRLQQKTQVFPLERNAAVRTRLTHSMEVQQVGRYIAKEILSRLKELKLLEAYGLDELTGPFESIVEMSCLMHDIGNPPFGHFGEAAINDWFRQRLHPEDAESQPLTDDRCSVAVLRLRDGEEPLNELRRKIRQDLCHFEGNAQGIRLVHTLMRMNLTWAQVGGILKYTRPAWWRGETPETHHYLMKKPGYYLSEEAYIARLRKELNLALYSRFPLTWIMEAADDISYCVADLEDAVEKRIFTVEQLYHHLHEAWGQHEKGSLFSLVVENAWEKSRSNSLSRSTEDQFFMYLRVNTLNKLVPYAAQRFIDNLPAIFAGTFNHALLEDASECSDLLKLYKNVAVKHVFSHPDVEQLELQGYRVISGLLEIYRPLLSLSLSDFTELVEKERVKRSPIESRLFHKLSTRHRLAYVEAVSKLPSDSPEFPLWEYYYRCRLLQDYISGMTDLYAWDEYRRLMAVEQ	not soluble
MAQLFFKYGAMNSGKTIEILKVAHNYEEQDKPVVLMTSGLDTRDGVGKVSSRIGLRRDAIPIFEETNVFDLINDLSYKPFCVLVDECQFLNKHHVIEFARIVDELDIPVMAFGLKNDFRNELFEGSKYLLLYADKLEELKTICWFCHKKATMNLHYIDGNPVYEGDQVQIGGNEAYYPVCRKHYFHPKTVNEEQLEHHHHHH	soluble
MAQQGVFTLPANTSFGVTAFANAANTQTIQVLVDNVVKATFTGSGTSDKLLGSQVLNSGSGAIKIQVSVNGKPSDLVSNQTILANKLNFAMVGSEDGTDNDYNDGIAVLNWPLG	soluble
MARATLACMEKITGAERSPEARDSAGAVGGADGREALVARVRAGERIKYLCFWGHRPLPDGRLGPSCLSQWWPSPFTVAGVEYATAEHWMMAGKARLFGDPEAERRVLAAAHPAGAKKAGRLVRGFDEAVWERERFRIVVEGSVHKFASDPALRVFLLATGERVLVEASPVDRVWGIGLAADDEAAVDPERWRGPNLLGFALMAARERLRAGELEHHHHHH	not soluble
MARIKLIDETTDLSQVRRPIGWDLEVNGVPYDVYRIDGYNHTLGGKFSENCYWACPAGKKPTYKNLIEFNGDAPTWGIVFDRSNYTKTKWDETSVECNGICWITRNGKKFYSIPARYMDYGLAKAQYILVKLLEECPLWLSERNWKEKAIGRKIWYENQPAKIIRINEENELWIEPDGIPVFKAPAHWDHDDYSDYENGLRVDLLSPNIYWFRD	not soluble
